Data as given in US20230357348A1 (AstraZeneca / MedImmune, published 2023).
Starred links: 1 amine or outer side, 2 acyl side, 3 side chain; linkers in the order of their positions; H or OH if unused. Non-standard residues stand in square brackets, D forms with d. Groups on a side chain read outwards from the residue. No end group written: not given here. *: point of attachment. C20 diacid = O=C(O)CCCCCCCCCCCCCCCCCCC(=O)*; C18 diacid = O=C(O)CCCCCCCCCCCCCCCCC(=O)*; γGlu = O=C(O)[C@H](CCC(=O)[*:2])N[*:1]; αMeF = C[C@](N)(Cc1ccccc1)C(=O)O; AEEA = NCCOCCOCC(=O)O; Aib = CC(C)(N)C(=O)O

How the values were obtained:
[1] = target: human glucagon receptor (hGCGR) (human, UniProt P47871 26-477); test: cell-based or functional assay
[2] = target: human GLP-1 receptor (hGLP-1R) (human, UniProt P43220 24-463); test: cell-based or functional assay

Sequence of human glucagon receptor (hGCGR) (P47871 26-477): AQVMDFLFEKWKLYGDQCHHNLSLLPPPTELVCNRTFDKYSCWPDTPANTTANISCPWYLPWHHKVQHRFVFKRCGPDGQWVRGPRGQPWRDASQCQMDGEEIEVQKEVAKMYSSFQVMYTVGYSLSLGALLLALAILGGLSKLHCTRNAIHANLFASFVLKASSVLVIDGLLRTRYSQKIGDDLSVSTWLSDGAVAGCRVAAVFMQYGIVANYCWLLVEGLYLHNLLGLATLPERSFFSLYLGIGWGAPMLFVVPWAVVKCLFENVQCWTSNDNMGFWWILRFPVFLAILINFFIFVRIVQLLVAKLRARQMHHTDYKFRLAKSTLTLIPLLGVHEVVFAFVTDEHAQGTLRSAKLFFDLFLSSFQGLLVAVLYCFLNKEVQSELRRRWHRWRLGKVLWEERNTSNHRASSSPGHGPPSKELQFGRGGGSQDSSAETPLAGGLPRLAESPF

Row | Binder | hGluc-R EC50 (pM) [1] | hGLP-1R EC50 (pM) [2]
1 | H[Aib]QGTFTSDVSK[αMeF]LDKK([AEEA-AEEA-γGlu-C20 diacid])RAQDFVRWLLE[Aib]G-NH2 [Peptide 453] | 162 pM | 170 pM
2 | H[Aib]QGTFTSDVSK[αMeF]LDKK([AEEA-AEEA-γGlu-C20 diacid])RALDFVRWLL[Aib]E-NH2 (N-terminus assumed; SMILES CC(C)C[C@H](NC(=O)[C@H](C)NC(=O)[C@H](CCCNC(=N)N)NC(=O)[C@H](CCCCNC(=O)COCCOCCNC(=O)COCCOCCNC(=O)CC[C@H](NC(=O)CCCCCCCCCCCCCCCCCCC(=O)O)C(=O)O)NC(=O)[C@H](CCCCN)NC(=O)[C@H](CC(=O)O)NC(=O)[C@H](CC(C)C)NC(=O)[C@](C)(Cc1ccccc1)NC(=O)[C@H](CCCCN)NC(=O)[C@H](CO)NC(=O)[C@@H](NC(=O)[C@H](CC(=O)O)NC(=O)[C@H](CO)NC(=O)[C@@H](NC(=O)[C@H](Cc1ccccc1)NC(=O)[C@@H](NC(=O)CNC(=O)[C@H](CCC(N)=O)NC(=O)C(C)(C)NC(=O)[C@@H](N)Cc1c[nH]cn1)[C@@H](C)O)[C@@H](C)O)C(C)C)C(=O)N[C@@H](CC(=O)O)C(=O)N[C@@H](Cc1ccccc1)C(=O)N[C@H](C(=O)N[C@@H](CCCNC(=N)N)C(=O)N[C@@H](Cc1c[nH]c2ccccc12)C(=O)N[C@@H](CC(C)C)C(=O)N[C@@H](CC(C)C)C(=O)NC(C)(C)C(=O)N[C@@H](CCC(=O)O)C(N)=O)C(C)C) [Peptide 452] | 151 pM | 495 pM
3 | H[Aib]QGTFTSDVSK[αMeF]LDKK([AEEA-AEEA-γGlu-C20 diacid])RARDFVLWLL[Aib]E-NH2 (N-terminus assumed; SMILES CC(C)C[C@H](NC(=O)[C@H](Cc1c[nH]c2ccccc12)NC(=O)[C@H](CC(C)C)NC(=O)[C@@H](NC(=O)[C@H](Cc1ccccc1)NC(=O)[C@H](CC(=O)O)NC(=O)[C@H](CCCNC(=N)N)NC(=O)[C@H](C)NC(=O)[C@H](CCCNC(=N)N)NC(=O)[C@H](CCCCNC(=O)COCCOCCNC(=O)COCCOCCNC(=O)CC[C@H](NC(=O)CCCCCCCCCCCCCCCCCCC(=O)O)C(=O)O)NC(=O)[C@H](CCCCN)NC(=O)[C@H](CC(=O)O)NC(=O)[C@H](CC(C)C)NC(=O)[C@](C)(Cc1ccccc1)NC(=O)[C@H](CCCCN)NC(=O)[C@H](CO)NC(=O)[C@@H](NC(=O)[C@H](CC(=O)O)NC(=O)[C@H](CO)NC(=O)[C@@H](NC(=O)[C@H](Cc1ccccc1)NC(=O)[C@@H](NC(=O)CNC(=O)[C@H](CCC(N)=O)NC(=O)C(C)(C)NC(=O)[C@@H](N)Cc1c[nH]cn1)[C@@H](C)O)[C@@H](C)O)C(C)C)C(C)C)C(=O)N[C@@H](CC(C)C)C(=O)NC(C)(C)C(=O)N[C@@H](CCC(=O)O)C(N)=O) [Peptide 451] | 503 pM | 895 pM
4 | H[Aib]QGTFTSDVSK[αMeF]LDKK([AEEA-AEEA-γGlu-γGlu-C18 diacid])RAQDFVRWLLE[Aib]G-OH (N-terminus assumed; SMILES CC(C)C[C@H](NC(=O)[C@H](Cc1c[nH]c2ccccc12)NC(=O)[C@H](CCCNC(=N)N)NC(=O)[C@@H](NC(=O)[C@H](Cc1ccccc1)NC(=O)[C@H](CC(=O)O)NC(=O)[C@H](CCC(N)=O)NC(=O)[C@H](C)NC(=O)[C@H](CCCNC(=N)N)NC(=O)[C@H](CCCCNC(=O)COCCOCCNC(=O)COCCOCCNC(=O)CC[C@H](NC(=O)CC[C@H](NC(=O)CCCCCCCCCCCCCCCCC(=O)O)C(=O)O)C(=O)O)NC(=O)[C@H](CCCCN)NC(=O)[C@H](CC(=O)O)NC(=O)[C@H](CC(C)C)NC(=O)[C@](C)(Cc1ccccc1)NC(=O)[C@H](CCCCN)NC(=O)[C@H](CO)NC(=O)[C@@H](NC(=O)[C@H](CC(=O)O)NC(=O)[C@H](CO)NC(=O)[C@@H](NC(=O)[C@H](Cc1ccccc1)NC(=O)[C@@H](NC(=O)CNC(=O)[C@H](CCC(N)=O)NC(=O)C(C)(C)NC(=O)[C@@H](N)Cc1c[nH]cn1)[C@@H](C)O)[C@@H](C)O)C(C)C)C(C)C)C(=O)N[C@@H](CC(C)C)C(=O)N[C@@H](CCC(=O)O)C(=O)NC(C)(C)C(=O)NCC(=O)O) [Peptide 450] | 57.8 pM | 57.3 pM
5 | H[Aib]QGTFTSDVSK[αMeF]LDKK([AEEA-AEEA-γGlu-γGlu-C18 diacid])RARDFVRWLL[Aib]E-OH (N-terminus assumed; SMILES CC(C)C[C@H](NC(=O)[C@H](Cc1c[nH]c2ccccc12)NC(=O)[C@H](CCCNC(=N)N)NC(=O)[C@@H](NC(=O)[C@H](Cc1ccccc1)NC(=O)[C@H](CC(=O)O)NC(=O)[C@H](CCCNC(=N)N)NC(=O)[C@H](C)NC(=O)[C@H](CCCNC(=N)N)NC(=O)[C@H](CCCCNC(=O)COCCOCCNC(=O)COCCOCCNC(=O)CC[C@H](NC(=O)CC[C@H](NC(=O)CCCCCCCCCCCCCCCCC(=O)O)C(=O)O)C(=O)O)NC(=O)[C@H](CCCCN)NC(=O)[C@H](CC(=O)O)NC(=O)[C@H](CC(C)C)NC(=O)[C@](C)(Cc1ccccc1)NC(=O)[C@H](CCCCN)NC(=O)[C@H](CO)NC(=O)[C@@H](NC(=O)[C@H](CC(=O)O)NC(=O)[C@H](CO)NC(=O)[C@@H](NC(=O)[C@H](Cc1ccccc1)NC(=O)[C@@H](NC(=O)CNC(=O)[C@H](CCC(N)=O)NC(=O)C(C)(C)NC(=O)[C@@H](N)Cc1c[nH]cn1)[C@@H](C)O)[C@@H](C)O)C(C)C)C(C)C)C(=O)N[C@@H](CC(C)C)C(=O)NC(C)(C)C(=O)N[C@@H](CCC(=O)O)C(=O)O) [Peptide 448] | 29 pM | 53.1 pM

The remaining lines, values ahead:

Row | hGluc-R EC50 (pM) [1] | hGLP-1R EC50 (pM) [2] | Binder
6 | 366 pM | 32.9 pM | H[Aib]QGTFTSDVSK[αMeF]LDRK([AEEA-AEEA-γGlu-γGlu-C18 diacid])RAQDFVRWLV[Aib]E-NH2 (N-terminus assumed; SMILES CC(C)C[C@H](NC(=O)[C@H](Cc1c[nH]c2ccccc12)NC(=O)[C@H](CCCNC(=N)N)NC(=O)[C@@H](NC(=O)[C@H](Cc1ccccc1)NC(=O)[C@H](CC(=O)O)NC(=O)[C@H](CCC(N)=O)NC(=O)[C@H](C)NC(=O)[C@H](CCCNC(=N)N)NC(=O)[C@H](CCCCNC(=O)COCCOCCNC(=O)COCCOCCNC(=O)CC[C@H](NC(=O)CC[C@H](NC(=O)CCCCCCCCCCCCCCCCC(=O)O)C(=O)O)C(=O)O)NC(=O)[C@H](CCCNC(=N)N)NC(=O)[C@H](CC(=O)O)NC(=O)[C@H](CC(C)C)NC(=O)[C@](C)(Cc1ccccc1)NC(=O)[C@H](CCCCN)NC(=O)[C@H](CO)NC(=O)[C@@H](NC(=O)[C@H](CC(=O)O)NC(=O)[C@H](CO)NC(=O)[C@@H](NC(=O)[C@H](Cc1ccccc1)NC(=O)[C@@H](NC(=O)CNC(=O)[C@H](CCC(N)=O)NC(=O)C(C)(C)NC(=O)[C@@H](N)Cc1c[nH]cn1)[C@@H](C)O)[C@@H](C)O)C(C)C)C(C)C)C(=O)N[C@H](C(=O)NC(C)(C)C(=O)N[C@@H](CCC(=O)O)C(N)=O)C(C)C) [Peptide 446]
7 | 667 pM | 170 pM | H[Aib]QGTFTSDVSK[αMeF]LDRK([AEEA-AEEA-γGlu-γGlu-C20 diacid])RAQDFVRWLV[Aib]E-NH2 (N-terminus assumed; SMILES CC(C)C[C@H](NC(=O)[C@H](Cc1c[nH]c2ccccc12)NC(=O)[C@H](CCCNC(=N)N)NC(=O)[C@@H](NC(=O)[C@H](Cc1ccccc1)NC(=O)[C@H](CC(=O)O)NC(=O)[C@H](CCC(N)=O)NC(=O)[C@H](C)NC(=O)[C@H](CCCNC(=N)N)NC(=O)[C@H](CCCCNC(=O)COCCOCCNC(=O)COCCOCCNC(=O)CC[C@H](NC(=O)CC[C@H](NC(=O)CCCCCCCCCCCCCCCCCCC(=O)O)C(=O)O)C(=O)O)NC(=O)[C@H](CCCNC(=N)N)NC(=O)[C@H](CC(=O)O)NC(=O)[C@H](CC(C)C)NC(=O)[C@](C)(Cc1ccccc1)NC(=O)[C@H](CCCCN)NC(=O)[C@H](CO)NC(=O)[C@@H](NC(=O)[C@H](CC(=O)O)NC(=O)[C@H](CO)NC(=O)[C@@H](NC(=O)[C@H](Cc1ccccc1)NC(=O)[C@@H](NC(=O)CNC(=O)[C@H](CCC(N)=O)NC(=O)C(C)(C)NC(=O)[C@@H](N)Cc1c[nH]cn1)[C@@H](C)O)[C@@H](C)O)C(C)C)C(C)C)C(=O)N[C@H](C(=O)NC(C)(C)C(=O)N[C@@H](CCC(=O)O)C(N)=O)C(C)C) [Peptide 447]
8 | 242 pM | 207 pM | H[Aib]QGTFTSDVSK[αMeF]LDTK([AEEA-AEEA-γGlu-γGlu-C20 diacid])RARDFVQWLLE[Aib]G-OH (N-terminus assumed; SMILES CC(C)C[C@H](NC(=O)[C@H](Cc1c[nH]c2ccccc12)NC(=O)[C@H](CCC(N)=O)NC(=O)[C@@H](NC(=O)[C@H](Cc1ccccc1)NC(=O)[C@H](CC(=O)O)NC(=O)[C@H](CCCNC(=N)N)NC(=O)[C@H](C)NC(=O)[C@H](CCCNC(=N)N)NC(=O)[C@H](CCCCNC(=O)COCCOCCNC(=O)COCCOCCNC(=O)CC[C@H](NC(=O)CC[C@H](NC(=O)CCCCCCCCCCCCCCCCCCC(=O)O)C(=O)O)C(=O)O)NC(=O)[C@@H](NC(=O)[C@H](CC(=O)O)NC(=O)[C@H](CC(C)C)NC(=O)[C@](C)(Cc1ccccc1)NC(=O)[C@H](CCCCN)NC(=O)[C@H](CO)NC(=O)[C@@H](NC(=O)[C@H](CC(=O)O)NC(=O)[C@H](CO)NC(=O)[C@@H](NC(=O)[C@H](Cc1ccccc1)NC(=O)[C@@H](NC(=O)CNC(=O)[C@H](CCC(N)=O)NC(=O)C(C)(C)NC(=O)[C@@H](N)Cc1c[nH]cn1)[C@@H](C)O)[C@@H](C)O)C(C)C)[C@@H](C)O)C(C)C)C(=O)N[C@@H](CC(C)C)C(=O)N[C@@H](CCC(=O)O)C(=O)NC(C)(C)C(=O)NCC(=O)O) [Peptide 449]
